Results reported in the Human Domainome abundance scans (Beltran et al. 2025).
± gives the uncertainty stated by the source.

B1: F-BAR and double SH3 domains protein 1, residues 467 to 528; numbered along this chain, Q86WN1 (parent)
chain: RALPCPAHVVFRYQAGREDELTITEGEWLEVIEEGDADEWVKARNQHGEVGFVPERYLNFPD

Variants of: B1
Experiment: abundance fitness (aPCA) (normalised: wild type 0, dead -1); higher = more abundant; growth selection in yeast, the domain comes from the species named
Conditions: Homo sapiens

Variant | abundance fitness
P54N | 0.198 ± 0.13
P54W | -0.117 ± 0.063
P54D | -0.539 ± 0.16
V31I | -0.028 ± 0.067
V31F | -0.991 ± 0.19
V31Q | -1.03 ± 0.34
V31Y | -0.431 ± 0.22
V31S | -0.683 ± 0.091
V31T | -0.778 ± 0.14
V31G | -0.888 ± 0.087
G26Q | -0.34 ± 0.13
G26F | -0.871 ± 0.2
G26D | -0.047 ± 0.087
G26V | -0.942 ± 0.15
G26L | -0.741 ± 0.092
G26T | -0.871 ± 0.2
E49R | -0.085 ± 0.058
E49C | -0.029 ± 0.095
E49I | 0.1 ± 0.095
E49Y | -0.427 ± 0.14
E49F | -0.088 ± 0.09

Variant | abundance fitness
E18Q | 0.01 ± 0.079
E18Y | -0.233 ± 0.079
E18M | -0.245 ± 0.087
E18F | -0.28 ± 0.12
E18P | -0.062 ± 0.067
E18T | -0.013 ± 0.071
E18V | -0.134 ± 0.049
E18G | -0.072 ± 0.047
H47M | -0.039 ± 0.052
H47E | -0.171 ± 0.078
H47R | 0.092 ± 0.048
H47Y | -0.215 ± 0.11
H47F | -0.246 ± 0.12
N59M | -0.117 ± 0.057
N59E | 0.028 ± 0.06
N59L | -0.159 ± 0.035
N59G | -0.096 ± 0.054
C5I | -0.419 ± 0.1
C5F | -0.294 ± 0.12
C5W | -0.399 ± 0.091
C5L | -0.538 ± 0.067

Variant | abundance fitness
C5D | -1.04 ± 0.4
C5Q | -0.171 ± 0.09
C5G | -0.386 ± 0.094
R12P | -0.102 ± 0.072
R12Q | -0.078 ± 0.075
R12I | -0.792 ± 0.17
R12G | 0.085 ± 0.043
Q14V | -0.14 ± 0.049
Q14F | -0.018 ± 0.056
Q14M | -0.121 ± 0.081
Q14K | -0.078 ± 0.079
Q14T | -0.204 ± 0.069
Y13Q | -0.406 ± 0.12
Y13M | -0.594 ± 0.14
Y13W | -0.167 ± 0.12
F52R | -0.063 ± 0.044
F52A | -0.249 ± 0.055
F52H | -0.199 ± 0.093
F52W | 0.033 ± 0.062
F52L | 0.104 ± 0.04
F52M | -0.019 ± 0.061

Variant | abundance fitness
L3H | -0.206 ± 0.091
L3Q | -0.362 ± 0.17
L3I | -0.058 ± 0.093
L3P | -0.242 ± 0.093
L3S | -0.193 ± 0.057
L3A | -0.693 ± 0.24
F60P | -0.466 ± 0.18
F60R | -0.329 ± 0.047
F60T | -0.499 ± 0.091
F60A | -0.535 ± 0.086
F60D | -0.768 ± 0.33
F60V | -0.157 ± 0.05
A37D | -0.048 ± 0.13
A37C | 0.118 ± 0.13
A37Q | 0.071 ± 0.068
E20H | -0.138 ± 0.13
E20L | -0.769 ± 0.072
E20C | -0.103 ± 0.079
E20K | -0.809 ± 0.17
E20T | -0.286 ± 0.097
E20A | -0.205 ± 0.064
